Consider one substance from article PMC4258231.

In this experiment the target is typhoid toxin B subunit PltB (Salmonella Typhi) (UniProt Q8Z6A3). In words: crystal structure.

“typhoid toxin B subunit PltB (from UniProt Q8Z6A3 1-137) (natural protein)” had a stoichiometry N of 5.

By stoichiometry N is commonly meant the number of molecules, sites or subunits per partner or assembly.
